In patent publication US6544767 (AXYS PHARMACEUTICALS, dated 2003):

Biological target: T1, mature recombinant human cathepsin O2 (human, UniProt P43235 115-329)
T1 construct: also called parent enzyme; mature enzyme
T1 sequence: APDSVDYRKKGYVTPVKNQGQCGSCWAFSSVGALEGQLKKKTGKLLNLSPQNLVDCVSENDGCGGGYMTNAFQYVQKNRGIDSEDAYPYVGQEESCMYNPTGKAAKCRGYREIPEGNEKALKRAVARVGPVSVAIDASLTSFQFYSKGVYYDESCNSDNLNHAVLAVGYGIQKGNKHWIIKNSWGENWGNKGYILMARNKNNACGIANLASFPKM
Experiment: inhibition of enzyme activity; assay not detailed in Example 3

Ki: 0.1 nM
B1: propart of human cathepsin O2 (expressed separately in the pTrcHis vector, six-histidine metal binding domain) (other)
chain: LYPEEILDTHWELWKKTHRKQYNNKVDEISRRLIWEKNLKYISIHNLEASLGVHTYELAMNHLGDMTSEEVVQKMTGLKVPLSHSRSNDTLYIPEWEGR
notes: Tag removal is not mentioned; also called proregion; not shown: vector-encoded leader of pTrcHis with a series of six histidine residues
